Measurements reported in the DeepSol protein solubility set.

assay: soluble on expression in E. coli; label from the status in PepcDB or PDB records

Sequence | soluble on expression in E. coli
MRGSHHHHHHGSMAEKNYVMAIDQGTTSSRAIIFDRNGKKIGSSQKEFPQYFPKSGWVEHNANEIWNSVQSVIAGAFIESGIRPEAIAGIGITNQRETTVVWDKTTGQPIANAIVWQSRQSSPIADQLKVDGHTEMIHEKTGLVIDAYFSATKVRWLLDNIEGAQEKADNGELLFGTIDSWLVWKLTDGQVHVTDYSNASRTMLYNIHKLEWDQEILDLLNIPSSMLPEVKSNSEVYGHTRSYRFYGSEVPIAGMAGDQQAALFGQMAFEKGMIKNTYGTGAFIVMNTGEEPQLSDNDLLTTIGYGINGKVYYALEGSIFVAGSAIQWLRDGLRMIETSPQSEELAAKAKGDNEVYVVPAFTGLGAPYWDSEARGAVFGLTRGTTKEDFVRATLQAVAYQSKDVIDTMKKDSGIDIPLLKVDGGAAKNDLLMQFQADILDIDVQRAANLETTALGAAYLAGLAVGFWKDLDELKSMAEEGQMFTPEMPAEERDNLYEGWKQAVAATQTFKFKAKKEGE | soluble
MKNDRTLQAIGRQLKAMGCERFDIGVRDATTGQMMNREWSAAEVLQNTPWLKRMNAQGNDVYIRPAEQERHGLVLVDDLSEFDLDDMKAEGREPALVVETSPKNYQAWVKVADAAGGELRGQIARTLASEYDADPASADSRHYGRLAGFTNRKDKHTTRAGYQPWVLLRESKGKTATAGPALVQQAGQQIEQAQRQQEKARRLASLELPERQLSRHRRTALDEYRSEMAGLVKRFGDDLSKCDFIAAQKLASRGRSAEEIGKAMAEASPALAERKPGHEADYIERTVSKVMGLPSVQLARAELARAPAPRQRGMDRGGPDFSM | soluble
MPAWAARLGASRDQQRALEEERSRTQAALQVMPHMLIELDADERLLRGHPGWLDRLPTLGPMAPGQGLQDFLPVDLATEVRRVLAEVETTGAPVSRDWQVRQAGARVWLAISAARLPPLA | not soluble
EHDNTSYICKKIDEDEYVLSARLEIEKVNEMFGLDLPESDDYLTVGGLILNQYQSFPKLHELVRVGRYQFKIIKVTATKIELVRLKVME | not soluble
MSLNISTGLLIVESPTKAKTIAKMFSRPSVRIRNKVPVYETIIVDGNQIYVLDIVASKGHIVDLTLEDIGYYGIKVEDDGTIKPYYDLIKKCLDCNKIFSSASDKCPYCGSANLQSAQTTINLLRELALSVDKVFIASDPDTEGEKIAYDLASFLSPYNSNVYRVVYHEITKKAILEALRNPKKINTNLVMSQIVRRIEDRWIGFTLSNLLKTKFNGHNHGAGRVQTPVLGWIVNKTIKYKSAMGHVVYIDIAGYSIKKYFSEKRKVEEYINNLQVARIEKISEEKILLSPLPPFTTDTLLIEANMKYKLPANLVMKIAQDLFEAGLITYHRTDSTHISSVGIEIAKEYLQKQALIKEFVPRSWESSEEGAHEAIRPTRAIDVNELIQEIEENPYKYSIRFSKLHLLIYDLIFKRFIASQMSHAVGTKSRYLIKLGKDDNVDVELLSNAEGGFIKVYPVKVYNLPVGEIQPKVNITKGSSEQLLSYSDVISLMKSKGIGRPSTYAKTIENLMKHGYIVSSKRKSYLIATNRGISVYQFLSSKFYDLVSESTTSRLMTKLDDIALSKLNASTVLLEIFSEISTLVNPLKSEEGHHHHHH | soluble
MKLIFQMGKQPVLEKTILLFILSIVESLKLKVVSLDEAHRYIFNLEVLELLMDRNIDDQVLELIHFGMGLEDIYHVLPEELEHTIEELKWLCIQVLSEYSMHEESEQLIEDIR | not soluble
MSLKKAKLIFKDNTPFSLDFDDFYFNSKDGLNESKFVYTHSFEWKNQENFIIAESGFGIGLNFFLTLKRLLETTPSKRPKKLFYISVEAFYIEKEQLREIYQKLEFYEEFKELLEQFLKFYPKAKEGIYRFYFEDCFLDLVFEDIAVLKELDFKADVWYLDGFSPNKNLQMFDENLIFEVARLSKKNTQICTFSSASFLQKNLKKYGFRVEKTKGFRKREMIKAYLENELEFKDKEAYFSRTEGHHHHHH | soluble
MGSDKIHHHHHHMSPRPKQLSLELGSPPPSTFDNFVVASNREAVQRLHDLPSAVAQERAIDRLFYLWGENGCGRTHLLHAVCEATPQTGINCRYLSPHHPLSDFLFDPSCQLYTVDDVELLDEARQIAVFSLYNEVRAHVRTALVVAGGMAPRAMPVREDLRTRLGWGLVYQVQPLSDEDKMSAVLQAARERGLQLSPEITHWLVTRHYRDMPSLMALLDALDTYSLERKRPVTLPLLREMFAEFRE | not soluble
MKRLLFLGVDVGGTKTLAVLSDEQGNVLAIYKGKGANYQVVGKENAVRNLKDVIEAILDRAGKTRKEIDFAFFGYAGADFDYEMKIVREILEKLGLEKFDFDNDGRIALRSGVFDDIGIMVSCGTGSISYASDGRRVNRIGGLSFSLGERLGSHYIASLVTSAVMRAKDGRDDWTTLVDEVEKEIGPVENLLRYDYEGGYTAELVKKVNQALFRCAEKGDAVSLRIFDEIVVEVKKIIDAHRKALNFTPPIKLILEGSFFKNAPSLLINMIESAIGREYEIVIPEHDPVIGAVLFAMERVGLRVTEDLYNRLVRNYLREVKK | soluble
MDPTEMRYLEEENGAMMKTFKDAVTGFATGKTSLVFIGVEQLVQNFRAKRDFFNGAHITMTKVARTHY | soluble
MQRKGDTPATLDLFADQTPQPRRDEQIGPGSWLFSGFALPAMPTLLLALEQTLGHSPFRHMLTPGGLSMSAALSSCGPLGWITDRHGYRYSDVDPQTGQPWPAMPDAFMQLAQSAALAAGYRGFVPDACLINRYIPGAKMSLHQDKDEHDHRWPVVSVSLGIPAIFQFGGMQRSDKTRRISLFHGDVVVWGGEDRLRFHGILPIKQAEHPLLGEQRINLTFRKAGRDSLEHHHHHH | soluble
AGFMVPTTNTAGWGRAMAGGSLFPNDPSAAFNNPAAMAFIDKRIAQLTVNYADIDIKYNGDAYDYQGNPMTGGYQDGPGTPELGTNDGGQAGFGAWLPTGFLVVPINDRFAFGLSQVVPMGMRSTWDPNWKGRDFAVDTKIETIGLTGSLSFKVNDNFSLGAGVIIQRTSGFVSQNLDLYASAANSPGMGGIPFPASNSSALMRVKVDNTSPGFFAGAVWKPTDRDTLGFAYHAKIRNKLKGHYNLYDHDGGLTEGAIEGGTPGLAYPGLDLRMGASASARLDIPAYASLDWVHQFNDRLSLGASATWTEWSSFQDLTLKSHGNTIVSIPYTYRNTWTLAVGGDYKVTDQWTMRAGVAYDQTPTHNATRDPRIPDGDRYFASLGAGYRFQSMPELSIDAAYSRQFVKEVPLKTVNQDRLGGGRLDGRATSKGQVFSLSATYDFHHHHHHHH | soluble
MKVELVFIPSPGVGHIRATTALAKLLVASDNRLSVTLIVIPSRVSDDASSSVYTNSEDRLRYILLPARDQTTDLVSYIDSQKPQVRAVVSKVAGDVSTRSDSRLAGIVVDMFCTSMIDIADEFNLSAYIFYTSNASYLGLQFHVQSLYDEKELDVSEFKDTEMKFDVPTLTQPFPAKCLPSVMLNKKWFPYVLGRARSFRATKGILVNSVADMEPQALSFFSGGNGNTNIPPVYAVGPIMDLESSGDEEKRKEILHWLKEQPTKSVVFLCFGSMGGFSEEQAREIAVALERSGHRFLWSLRRASPVGNKSNPPPGEFTNLEEILPKGFLDRTVEIGKIISWAPQVDVLNSPAIGAFVTHCGWNSILESLWFGVPMAAWPIYAEQQFNAFHMVDELGLAAEVKKEYRRDFLVEEPEIVTADEIERGIKCAMEQDSKMRKRVMEMKDKLHVALVDGGSSNCALKKFVQDVVDNVP | soluble
MANMKENEKVIMEKGIHTDFKENMTYGEYLQLDSLLSSQKRLSDHHDEMLFIVIHQASELWMKLILHELNAAIEFIKQDKLQPAFKMLARVSKIQSQIIQSWDILATLTPSEYIEFRDSLGQASGFQSYQYRMIEYALGYKTPHALKIYEKDPELHARLHKALHAPSLYDVAIQALVKEGFPIHKDVLNRDITQPYEEDATVEAAWLEVYADVKKYWNLYQLAEKLIDIEDWLQQWRFRHMKTVERIIGHKMGTGGSSGVSYLKRVLDQQFFPELWNVRTKLMAGDPNSLEHHHHHH | soluble
MSSRKELANAIRALSMDAVQKAKSGHPGAPMGMADIAEVLWRDFLKHNPQNPSWADRDRFVLSNGHGSMLIYSLLHLTGYDLPMEELKNFRQLHSKTPGHPEVGYTAGVETTTGPLGQGIANAVGMAIAEKTLAAQFNRPGHDIVDHYTYAFMGDGCMMEGISHEVCSLAGTLKLGKLIAFYDDNGISIDGHVEGWFTDDTAMRFEAYGWHVIRDIDGHDAASIKRAVEEARAVTDKPSLLMCKTIIGFGSPNKAGTHDSHGAPLGDAEIALTREQLGWKYAPFEIPSEIYAQWDAKEAGQAKESAWNEKFAAYAKAYPQEAAEFTRRMKGEMPSDFDAKAKEFIAKLQANPAKIASRKASQNAIEAFGPLLPEFLGGSADLAPSNLTLWSGSKAINEDAAGNYIHYGVREFGMTAIANGISLHGGFLPYTSTFLMFVEYARNAVRMAALMKQRQVMVYTHDSIGLGEDGPTHQPVEQVASLRVTPNMSTWRPCDQVESAVAWKYGVERQDGPTALILSRQNLAQQERTEEQLANIARGGYVLKDCAGQPELIFIATGSEVELAVAAYEKLTAEGVKARVVSMPSTDAFDKQDAAYRESVLPKAVTARVAVEAGIADYWYKYVGLNGAIVGMTTFGESAPAELLFEEFGFTVDNVVAKAKELLHHHHHH | soluble
MAVSEIKATMKLKPLKAPVFHKRDKDLRGSFSDHLKHKESKLSPAQLEAFRNAYNFFTKDRTGCIDSHGLISTIAKLGMNLNTYDIYNELKCADLDRDGKINFSDFINVLTDKKLFLKAVVPEKKICLDLANNPGILLFEILSKFVETSSLHRKDIIELVSYFRKRFQESHSEIMWSSYGRRGLKSEICSPPRSSTAAFANSARISIMKERDLYKFLEALKRCNLRTDSPYSKIPVFPLFPDVDGTVMGKPFKDTQKIEMLRRKEPLTFFEDYFFNKRDWKTQAMNVKPLKSASGYSDDILAIDHLFKKKQHWTVTDAAAIKQHVKKATESYNLGIALDHRKEMLNLWKKIRGDLVGIESNNESFYNTFSTYTWSWNVCQELLSAKDLRLHDASMNKSSPSNSGLSSPSDFSESDPETGRKRKRKSSRGFRQ | not soluble
MASKKISLTKPKYQQIAVDVAEKIAEGKLHVGDKIHARSTLANQYQVSPETARKAIIVLVDLEIVKAKHGSGFYVASKEKAQDFVTQYQDVQTIAEIKEELLDSVAKQKEELTHFSSILDTLVEQTKRFDSFNPMNPYSLVLTEEAAYLEATISEMNFWQNTSATIIAIKHKEELLVSPGPYAKISLNDTLYFVGHDESTLQRVQNFFYP | not soluble
MATKVYIVYYSMYGHVEKLAQEIRKGAASVDGVEAILWQVPETLQEDVLSKMSAPPKSDAPIITPNELAEADGFIFGFPTRFGMMAAQFKAFLDATGGLWRTQQLAGKPAGIFYSTGSQGGGQETTALTAITQLVHHGMIFVPIGYTFGAGMFEMENVKGGSPYGAGTFAGDGSRQPTELELGQAFHQGKYIAAISKKLKGPAAA | soluble
SAFPIDLRGQTAFVAGVADSHGYGWAIAKHLASAGARVALGTWPPVLGLFQKSLQSGRLDEDRKLPDGSLIEFAGVYPLDAAFDKPEDVPQDIKDNKRYAGVDGYTIKEVAVKVKQDLGNIDILVHSLANGPEVTKPLLETSRKGYLAASSNSAYSFVSLLQHFGPIMNEGGSAVTLSYLAAERVVPGYGGGMSSAKAALESDTRTLAWEAGQKYGVRVNAISAGPLKSRAASAIGKSGEKSFIDYAIDYSYNNAPLRRDLHSDDVGGAALFLLSPLARAVSGVTLYVDNGLHAMGQAVDSRSMPPLQRATQEIN | soluble
MLDLVNQLELDSQMKQFKLVSQMTRQDVIILDEPGYLPFSQKRGALLFHLMSQLHENTSVIITTNLEFSEWGTLFTEAKMTNALLDRLIHHCHMLETGNESYRFKHRNLEHHHHHH | not soluble
